Among the targets are chymotrypsin; neuropsin; human α-thrombin (human) (UniProt P00734).
Experiment in all cases: cell-based or functional assay

Data on one substance can be found in patent US20060177432A1.

On to “6xHis-PEBP (recombinant mouse PEBP with a 6xHis-tag at the N-terminus) (from UniProt P70296 2-187)”, for which the inhibition of amidolytic activity (chromogenic substrate, 405 nm) with chymotrypsin came out at 25%; with neuropsin, 70%; with human α-thrombin (human) it was 55%.
